Results as given in patent US12091391B2, “Reagents and methods for bioorthogonal labeling of biomolecules in living cells” (Oregon State University, priority 2015, dated 2024).
Residue numbers refer to the chain shown, from its start. In names and notes the source's numbering stands.

B1: R2-40: M. barkeri PylRS synthetase hit for Tet-v3.0: N311G, C313A, K296R (protein, UniProt Q46E77 1-419, looked up, variant N311G C313A K296R)
Pyrrolysine--tRNA ligase: MDKKPLDVLISATGLWMSRTGTLHKIKHYEVSRSKIYIEMACGDHLVVNNSRSCRTARAFRHHKYRKTCKRCRVSDEDINNFLTRSTEGKTSVKVKVVSAPKVKKAMPKSVSRAPKPLENPVSAKASTDTSRSVPSPAKSTPNSPVPTSAPAPSLTRSQLDRVEALLSPEDKISLNIAKPFRELESELVTRRKNDFQRLYTNDREDYLGKLERDITKFFVDRDFLEIKSPILIPAEYVERMGINNDTELSKQIFRVDKNLCLRPMLAPTLYNYLRKLDRILPDPIKIFEVGPCYRRESDGKEHLEEFTMVGFAQMGSGCTRENLESLIKEFLDYLEIDFEIVGDSCMVYGDTLDIMHGDLELSSAVVGPVPLDREWGIDKPWIGAGFGLERLLKVMHGFKNIKRASRSESYYNGISTNL
B2: R2-74: M. barkeri PylRS synthetase hit for Tet-v3.0: L270G, N311G, C313S (protein, UniProt Q46E77 1-419, looked up, variant L270G N311G C313S)
Pyrrolysine--tRNA ligase: B1 Pyrrolysine--tRNA ligase with L270G, R296K, A313S
B3: R2-84: M. barkeri PylRS synthetase hit for Tet-v3.0: L270G, N311G, C313A, R263C (protein, UniProt Q46E77 1-419, looked up, variant L270G N311G C313A R263C)
Pyrrolysine--tRNA ligase: B1 Pyrrolysine--tRNA ligase with R263C, L270G, R296K

assay: UP50 characterization of select synthetases (GFP fluorescence versus Tet-v3.0 concentration); format: cell-based, E. coli; conditions: fluorescence normalized to optical density, amino acid Tet-v3.0 (methyl)
Description: The UP50 value is a measure of amino acid concentration at which cells containing a given synthetase produces half of the maximum amount of unnatural protein containing the amino acid of interest. In this way the UP50 is dependent both on the synthetase and amino acid of interest. This value is obtained by measuring the fluorescence of produced GFP at various concentrations of amino acids and fitting measured values to the curve:
UP is the measured fluorescence, [AA] is the amino acid concentration, and UPmax is the maximum protein produced. The methodology for obtaining UP50 and UPmax values is described below.
Non-inducing media starter cultures containing Tcn (25 μg/mL) and Kn (50 μg/mL) were grown overnight (37° C., 18 hrs). Starter cultures consisted of E. coli DH10B transformed with a pBK plasmid containing the synthetases of interest (R2-40, R2-74, and R2-84) and tRNA, as well as a pALS plasmid containing an amber codon interrupted GFP gene under control of an araBAD promoter. Starters were used to inoculate (30 μL) autoinducing media (3 mL) containing Tcn (25 μg/mL), Kn (50 μg/mL), and Tet-v3.0 at various concentrations. Tet-v3.0 concentrations were varied from 0.005 mM to 1 mM with duplicates for each concentration. As a control, media was inoculated in duplicate containing no amino acid. To aid in dissolution, 30 μL of N,N-dimethyl formamide (DMF) was added to the Tet-v3.0 prior to addition to media.
The fluorescence and optical density of the media was measured after 24, 36, and 48 hrs. The fluorescence normalized to the optical density was plotted across Tet-v3.0 concentrations and used to calculate the UP50 and UPmax for individual synthetases (see FIG. 16. FIG. 16 compares UP50 titration curves for three Tet-v3.0-methyl incorporating synthetases: R2-40, R2-74, and R2-84. UP50 and UPmax values are obtained from the fit of the curves. The R2-74 synthetase was moved into eukaryotic plasmids for protein expression.

**Q.** For B1, which UPmax is on record?
**A.** Its UPmax is 540.

**Q.** With B2 as the molecule, how does the UPmax read?
**A.** The UPmax was 400.

**Q.** Which UPmax does the source give for B3 here?
**A.** Its UPmax is 517.
